Columns and labels:
[1] = Phase 1 study in healthy subjects (AB79-101): pharmacokinetics; type: in vivo, human; settings: single 0.06 mg/kg IV dose
Procedure: (§1) In a phase 1 study in healthy subjects (Study AB79-101), AB79 reduced the levels of peripheral blood and natural killer (NK) cells >90% from baseline in all subjects receiving a single 0.06 mg/kg IV dose of AB79, with a maximum observed concentration (Cmax) of 0.1 μg/mL. (U.S. Pat. No. 8,362,211; U.S. International Patent Application Serial Nos. PCT/US2019/013547 and PCT/US2019/024431). […] Potent reduction of plasmablasts was observed across cohorts of patients in the RRMM trial (Study AB79-1501). […] Consequently, AB79 may be more efficient at eliminating cells expressing high levels of CD38, which could manifest as higher activity on tumor cells (e.g., improved and deeper response rates across a population of patients with myeloma).
(§2) AB79 IV reduced the levels of peripheral blood NK cells >90% from baseline levels in all subjects receiving a single 0.06 mg/kg IV dose, with a Cmax of 0.1 μg/mL. […] As a potent and convenient second-generation anti-CD38 mAb, AB79 SC warranted therapeutic development for the treatment of multiple myeloma (MM).

[2] = tested on: peripheral blood NK cells; test: Phase 1 study in healthy subjects (AB79-101): NK cell levels; type: in vivo, human; settings: all subjects receiving a single 0.06 mg/kg IV dose
Procedure: as §1, §2

[3] = AB79-1501 study, AB79 monotherapy SC in RRMM: safety; type: in vivo
Text: Patients eligible for study enrollment are refractory or intolerant to at least one PI and at least one IMiD, and have received either ≥3 prior therapies or ≥2 prior therapies, if one of those therapies included a combination of a PI and an IMiD. In the phase 1b dose-escalation part of the study, patients who were previously exposed to an anti-CD38 agent are eligible; however, this criterion is not required. In the phase 2a expansion part of the study, patients were also refractory to at least one anti-CD38 monoclonal therapy at any time during prior treatment. The study was designed to evaluate the safety and tolerability of subcutaneously administered AB79 monotherapy in patients with RRMM, to determine the recommended phase 2 dose (RP2D), and to provide a preliminary assessment of its single-agent activity against RRMM, including in patients who are refractory to daratumumab. Parameters such as safety, tolerability, pharmacokinetics (PK), pharmacodynamics, and disease response were assessed.
Clinical safety data includes that from patients who received a single dose and from patients who received multiple doses in multiple cycles followed by treatment-free periods. Based on the mechanism of action (MOA) of AB79 and the subcutaneous (SC) route of administration, potential adverse events (AEs) included systemic reaction (e.g., cytokine release syndrome (CRS) and hypersensitivity reaction), hematologic effects (e.g., reduced platelet, lymphocyte, neutrophil, and RBC counts), infections (e.g., bacterial and/or viral infections secondary to immune suppression), and injection site reaction (i.e., erythema or tenderness).

[4] = Phase 1 study in healthy subjects (AB79-101): safety; type: in vivo, human
Procedure: as §1, §2

[5] = AB79-1501 study, AB79 plus PomDex combination cohort in RRMM: safety; type: in vivo
Text: This is a multicenter, dose-escalation, open-label, single-arm, Phase 1/2a study designed to determine the safety, tolerability, efficacy, PK, and immunogenicity of AB79 monotherapy in patients with RRMM, and to provide a preliminary assessment of its activity against MM.
The phase 1 portion of the study evaluates administration of single agent AB79 for dose-limiting toxicity (DLT) to determine the MTD or the RP2D for further assessment in phase 2a. A recommended dose below the MTD is identified based on the review of safety, PK, PD (e.g., CD38 occupancy), and clinical data from the phase 1 portion of the study. The safety and tolerability of AB79 is assessed by recording and analyzing TEAEs, dose modifications, treatment discontinuations, vital signs, physical examinations, serum chemistry and hematology, urinalysis, ECGs, and concomitant medications. In phase 1, approximately 6 doses of AB79 are evaluated in ascending cohorts of 3 to 6 patients per cohort. Cohorts may be expanded by enrolling additional patients to further inform selection of the RP2D before enrolling in the Phase 2a portion of the study. In the phase 2a portion of this study, Grade 4 or higher nonhematologic toxicity is monitored starting from the first 10 enrolled patients and then every 10 patients thereafter. Additionally, a cohort of patients receive AB79 combined with the backbone regimen of pomalidomide and dexamethasone (PomDex) in patients with RRMM who have received at least 2 prior therapies and are refractory to the last therapy before study entry.
The study provides a Confirmation Cohort and a Combination Cohort. Each Cohort is administered a dose of 300 mg AB79 subcutaneously weekly for 8 weeks during Cycles 1 and 2 (8 doses), every other week during Cycles 3 to 6 for 16 weeks (8 doses), and then once every 4 weeks until PD in subsequent cycles. Safety and available efficacy, PK, and pharmacodynamics are reviewed at least after 6 patients in each subgroup have received 1 cycle of therapy, then on an ongoing basis. […] The Combination Cohort also receives pomalidomide and dexamethasone (PomDex), and given according to product labeling (Pomalyst USPI). […] In the Combination Cohort, up to 6 patients are initially enrolled and safety in Cycle 1 reviewed. […] If 2 of 6 patients develop DLTs, an additional cohort of 6 patients is tested at a de-escalated dose; an intermediate or more conservative dose schedule may also be implemented as a means to provide an overall lower dose. A lower dose of pomalidomide is also considered based on available safety data. […] If 2 of 6 patients develop DLTs at the lower dose, this cohort is stopped for further evaluation.

[6] = tested on: plasmablasts in peripheral blood; test: Phase 1 study in healthy subjects (AB79-101): plasmablast levels; type: in vivo, human; settings: SC
Procedure: as §1, §2

[7] = biological target: cynomolgus CD38 (Macaca fascicularis, UniProt Q5VAN0); test: Binding to cynomolgus CD38
cynomolgus CD38, sequence (Q5VAN0 whole entry): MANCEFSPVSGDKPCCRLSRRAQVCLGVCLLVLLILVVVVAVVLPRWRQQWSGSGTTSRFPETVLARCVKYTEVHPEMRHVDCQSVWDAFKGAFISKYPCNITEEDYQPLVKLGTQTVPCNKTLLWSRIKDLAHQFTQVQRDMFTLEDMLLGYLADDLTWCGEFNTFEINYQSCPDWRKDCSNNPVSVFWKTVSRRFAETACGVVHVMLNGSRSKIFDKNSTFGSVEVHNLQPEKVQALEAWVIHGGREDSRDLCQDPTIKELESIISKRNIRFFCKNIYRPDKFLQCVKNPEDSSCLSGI
Text: Other Morphosys antibodies targeting CD38 are known (see, e.g., WO 2006/125640, which discloses four human antibodies: MOR03077, MOR03079, MOR03080, and MOR03100 and two murine antibodies: OKT10 and IB4). […] Moreover, the prior art antibodies have poor ADCC as well as CDC activity.

[8] = monotherapy SC, total population, 45-600 mg
[9] = AB79 plus PomDex, RRMM, 5 patients treated

Substance: AB79: anti-CD38 monoclonal IgG1 antibody; heavy chain SEQ ID NO:11, light chain SEQ ID NO:12
- maximum observed concentration (Cmax) [1]: 100 ng/mL
- reduction of levels of peripheral blood NK cells from baseline [2]: > 90%
- infusion-related reactions (IRRs) ([3]; SC, dosed up to 600 mg): have not been observed
- patients with AEs that led to study discontinuation ([3]; both reported as not related to AB79): Two
- injection site reactions ([3]; monotherapy SC): < 0.25%
- share of AEs overall that were Grade 1 or 2 ([3]; monotherapy SC): 55%
- systemic reactions ([3]; monotherapy SC): no systemic reactions
- TEAE regardless of causality: abdominal distension [3, 8]: 12%
- TEAE regardless of causality: anemia [3, 8]: 15%
- TEAE regardless of causality: back pain [3, 8]: 12%
- TEAE regardless of causality: cough [3, 8]: 10%
- TEAE regardless of causality: diarrhea [3, 8]: 17%
- TEAE regardless of causality: fatigue [3, 8]: 27%
- TEAE regardless of causality: headache [3, 8]: 15%
- TEAE regardless of causality: hypertension [3, 8]: 12%
- TEAE regardless of causality: insomnia [3, 8]: 22%
- TEAE regardless of causality: nausea [3, 8]: 17%
- TEAE regardless of causality: neutropenia [3, 8]: 12%
- TEAE regardless of causality: pneumonia [3, 8]: 10%
- TEAE regardless of causality: upper respiratory infection [3, 8]: 27%
- dose-limiting toxicities (DLTs) ([3]; monotherapy cohorts): no DLTs
- maximum tolerated dose (MTD) ([3]; monotherapy cohorts): has not been identified
- drug-related SAEs (Diverticulitis) ([3]; patient with past medical history of diverticulitis): One
- serious adverse events (SAEs) ([4]; 74 healthy subjects, single IV or SC dose escalation): no serious adverse events
- neutrophil, lymphocyte, monocyte, RBC and platelet counts ([4]; healthy subjects, all dose cohorts): remained within normal ranges
- number of DLTs (neutropenia) ([5]; AB79 plus PomDex cohort): 1 DLT
- drug-related SAEs or AEs leading to study drug discontinuation, or on-study deaths ([5]; AB79 plus PomDex combination): No
- systemic reactions ([5]; AB79 plus PomDex combination): no systemic reactions
- TEAE regardless of causality: cough [5, 9]: 2 patients
- TEAE regardless of causality: neutropenia [5, 9]: 2 patients
- reduction of levels of circulating plasmablasts in peripheral blood [6]: dose-dependent manner
- binding to cynomolgus CD38 [7]: binds

— patent US20220241413A1, “COMBINATION THERAPIES USING CD-38 ANTIBODIES” (Takeda Pharmaceutical Company Limited, priority 2019, published 2022)
